Numbered stars: 1 amine (or outer) side, 2 acyl side, 3 side chain; on linkers, the order of the positions; unused ones are H or OH. Bridge positions count the residues as written; N and C are the ends. Side chains are listed from the residue outwards. Ends that are not written are not given here. * marks the point of attachment. C20 diacid = O=C(O)CCCCCCCCCCCCCCCCCCC(=O)*; γGlu = O=C(O)[C@H](CCC(=O)[*:2])N[*:1]
How the values were obtained:
[1] = biological target: T1, rat calcitonin receptor (rat, UniProt P32214 25-516); test: ratio IC50 rat calcitonin receptor / IC50 rat amylin receptor (reference)
T1 construct: whole, on cells; Membranes of transiently transfected BHK tk'ts 13 cells (Assay VIII); also called rCTR
T1 sequence (looked up): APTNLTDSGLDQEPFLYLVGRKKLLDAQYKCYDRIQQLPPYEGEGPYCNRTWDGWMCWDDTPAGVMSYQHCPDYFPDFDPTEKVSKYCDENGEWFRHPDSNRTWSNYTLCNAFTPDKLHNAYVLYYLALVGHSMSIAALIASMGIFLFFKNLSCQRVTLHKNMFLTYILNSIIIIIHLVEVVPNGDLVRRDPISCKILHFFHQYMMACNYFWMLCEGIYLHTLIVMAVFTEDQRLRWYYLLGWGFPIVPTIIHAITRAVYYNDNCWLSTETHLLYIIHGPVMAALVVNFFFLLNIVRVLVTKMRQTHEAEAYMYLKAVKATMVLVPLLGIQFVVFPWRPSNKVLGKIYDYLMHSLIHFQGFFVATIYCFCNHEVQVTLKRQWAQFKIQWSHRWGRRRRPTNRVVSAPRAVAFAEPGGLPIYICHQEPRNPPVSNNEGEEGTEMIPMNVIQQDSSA

[2] = biological target: T2, human calcitonin receptor (human, UniProt P30988 25-474); test: ratio IC50 human calcitonin receptor / IC50 human amylin receptor (reference)
T2 construct: whole, on cells; Membranes of a stably transfected BHK cell line (Assay VII); also called hCTR; hCT
T2 sequence (looked up): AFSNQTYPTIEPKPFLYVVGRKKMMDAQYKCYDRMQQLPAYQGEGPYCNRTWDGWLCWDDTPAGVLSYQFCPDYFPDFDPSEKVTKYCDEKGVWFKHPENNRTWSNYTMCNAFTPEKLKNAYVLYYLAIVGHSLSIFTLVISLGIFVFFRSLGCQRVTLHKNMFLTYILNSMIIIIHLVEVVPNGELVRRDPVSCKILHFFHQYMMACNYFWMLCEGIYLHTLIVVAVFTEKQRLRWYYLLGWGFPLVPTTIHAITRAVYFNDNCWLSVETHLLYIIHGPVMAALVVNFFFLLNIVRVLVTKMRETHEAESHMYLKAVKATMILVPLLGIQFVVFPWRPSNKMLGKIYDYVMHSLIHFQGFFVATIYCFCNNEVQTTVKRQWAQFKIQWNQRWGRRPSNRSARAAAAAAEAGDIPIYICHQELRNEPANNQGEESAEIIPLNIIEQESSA
Description: The resulting pellet was resuspended, homogenized and centrifuged (20.000 rpm, 15 min) in a buffer containing 20 mM Na-HEPES and 0.1 mM EDTA (pH 7.4, buffer 2). The resulting pellet was resuspended in buffer 2 and protein concentration was measured (BCA protein Assay, Pierce). The homogenate was kept cold during the whole procedure. The membranes were kept at −80° C. until use. The assay was performed in a 384 well Optiplate (PerkinElmer) in a total volume of 40 ul. Membranes were mixed with SPA beads. Final concentration of membranes 35 ng/μL final and SPA beads was 0.05 mg/well. Test-compounds were dissolved in DMSO and further diluted in assay buffer (50 mM Hepes, pH 7.4, 1 mM CaCl2, 5 mM MgCl₂, 0.1% OA and 0.02% Tween20). […] The final mixture was incubated with shaking at 400 rpm for 120 min at 25° C. prior to centrifugation (1500 rpm, 10 min). Samples were analyzed on TopCounter™ (Packard). The IC₅₀ was calculated using (one site binding competition analysis) GraphPad Prism5 as a measure of receptor affinity.
Membranes were prepared in the following way; the cells were rinsed with PBS and incubated with Versene for approximately 5 min before harvesting. The cells were flushed with PBS and the cell-suspension was centrifuged for 5 min at 1000 rpm. Cells were homogenized (Ultrathurrax) in a buffer containing 20 mM Na-HEPES and 10 mM EDTA (pH 7.4) and centrifuged at 20.000 rpm for 15 min. The resulting pellet was resuspended, homogenized and centrifuged (20.000 rpm, 15 min) in a buffer containing 20 mM Na-HEPES and 0.1 mM EDTA (pH 7.4, buffer 2). The resulting pellet was resuspended in buffer 2 and protein concentration was measured (BCA protein Assay, Pierce). The homogenate was kept cold during the whole procedure. The membranes were kept at −80° C. until use. Assay was performed in a 384 well Optiplate (PerkinElmer) in a total volume of 40 ul. Membranes were mixed with SPA beads.

[3] = biological target: T1, rat calcitonin receptor; test: SPA competition with 125I-calcitonin, membranes of BHK cells with rat calcitonin receptor (Assay VIII)
[4] = biological target: T3, rat amylin receptor (rat calcitonin receptor + rat RAMP 3) (rat, UniProt P32214 25-516; Q9JJ73 23-147); test: SPA competition with 125I-rat amylin, membranes of BHK cells with rat calcitonin receptor + rat RAMP3 (Assay VI)
T3 construct: whole, on cells; Membranes of transiently transfected BHK tk'ts 13 cells (Assay VI); also called rAmylin-R; rat amylin 3(a) receptor
T3 sequence (looked up) 1: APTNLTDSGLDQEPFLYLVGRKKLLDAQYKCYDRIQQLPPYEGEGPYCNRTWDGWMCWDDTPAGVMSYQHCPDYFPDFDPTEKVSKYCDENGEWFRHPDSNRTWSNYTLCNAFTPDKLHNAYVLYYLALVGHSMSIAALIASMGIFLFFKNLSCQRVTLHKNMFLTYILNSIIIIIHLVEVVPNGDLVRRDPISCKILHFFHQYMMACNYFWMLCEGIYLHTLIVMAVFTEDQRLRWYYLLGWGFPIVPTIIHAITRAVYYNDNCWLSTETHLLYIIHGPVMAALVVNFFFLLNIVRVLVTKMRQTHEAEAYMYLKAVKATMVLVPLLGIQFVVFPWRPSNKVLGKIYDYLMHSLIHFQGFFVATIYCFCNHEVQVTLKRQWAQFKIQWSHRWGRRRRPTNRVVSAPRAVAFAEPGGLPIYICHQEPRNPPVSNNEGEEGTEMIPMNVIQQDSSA
T3 sequence (looked up) 2: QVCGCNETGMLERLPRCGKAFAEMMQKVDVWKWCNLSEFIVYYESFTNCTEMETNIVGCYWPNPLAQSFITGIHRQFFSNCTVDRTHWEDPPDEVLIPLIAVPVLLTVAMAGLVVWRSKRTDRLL

Ratio rCT/rAmylin binding [1]: 45.6 | Ratio hCT/hAmylin binding [2]: 35.6 | IC50 [3]: 94.5 nM | IC50 [4]: 2.07 nM
B1: N^ε1-[(4S)-4-carboxy-4-[[(4S)-4-carboxy-4-(19-carboxynonadecanoylamino)butanoyl]amino]butanoyl]-[Glu14,Arg17,Pro21,Pro27,His34]-h-amylin (peptide)
peptide: K([γGlu-γGlu-C20 diacid])CNTATCATQRLAEFLRHSSPNFGAIPSSTNVGHNTY-NH2
modifications: disulfide 2-7; N-terminus assumed
SMILES: CC[C@H](C)[C@H](NC(=O)[C@H](C)NC(=O)CNC(=O)[C@H](Cc1ccccc1)NC(=O)[C@H](CC(N)=O)NC(=O)[C@@H]1CCCN1C(=O)[C@H](CO)NC(=O)[C@H](CO)NC(=O)[C@H](Cc1c[nH]cn1)NC(=O)[C@H](CCCNC(=N)N)NC(=O)[C@H](CC(C)C)NC(=O)[C@H](Cc1ccccc1)NC(=O)[C@H](CCC(=O)O)NC(=O)[C@H](C)NC(=O)[C@H](CC(C)C)NC(=O)[C@H](CCCNC(=N)N)NC(=O)[C@H](CCC(N)=O)NC(=O)[C@@H](NC(=O)[C@H](C)NC(=O)[C@@H]1CSSC[C@H](NC(=O)[C@@H](N)CCCCNC(=O)CC[C@H](NC(=O)CC[C@H](NC(=O)CCCCCCCCCCCCCCCCCCC(=O)O)C(=O)O)C(=O)O)C(=O)N[C@@H](CC(N)=O)C(=O)N[C@@H]([C@@H](C)O)C(=O)N[C@@H](C)C(=O)N[C@@H]([C@@H](C)O)C(=O)N1)[C@@H](C)O)C(=O)N1CCC[C@H]1C(=O)N[C@@H](CO)C(=O)N[C@@H](CO)C(=O)N[C@H](C(=O)N[C@@H](CC(N)=O)C(=O)N[C@H](C(=O)NCC(=O)N[C@@H](Cc1c[nH]cn1)C(=O)N[C@@H](CC(N)=O)C(=O)N[C@H](C(=O)N[C@@H](Cc1ccc(O)cc1)C(N)=O)[C@@H](C)O)C(C)C)[C@@H](C)O
notes: also called compound 87

Reference: patent US20140087995A1 (published 2014)
